The text below walks through data of a protein production outcome set (Wang et al. 2014).

This data set can be described thus: label from the status in PepcDB records.
As to “MSDNKPFGGSFGSNGGQYATTVQYGGTAAAPAKVSLGDTPAAAPAGDVIKDTTTAAFAADVIQESRRQPVLVDFWAPWCGPCKQLTPQLEKAVRAAGGKVKLVKMNIDDHPSIAGQLGIQSIPAVIAFKDGQPVDGFMGAIPESQIAEFITKVGGKGNGAPAVAEALAAATEAREAGDMQTAADIFDAILAQAPETIEAIAGLGELLFEAGDTEGAEALLATAPEAKKDAPVLAALRAKMALAAQAAELGNPAEFERRLAENPKDHQARFDLAMIQNARGERTAAADNLLAIIKADRGWNEDGARTQLLQFFEAWGMTDEATLAARRKLSALLFS”, the protein production entry is reported as “failed”.

For the sequence “MSDPLTAQEQHKRRQAVRELMPRTPFIGGLGIVFERYEPDDVVIRLPFRTDLTNDGTYFHGGVIASVMDTAGAAAAWSNHDFDRGTRAATVAMSIQYTGAAKRCDLLCHARTARRRKELTFTEITATDPDGNIVAHAVQTYRIVLEHHHHHH”, the protein production result is “failed”.

On to “MSDPSPIPARGRIASGGLVFLTVTTVAWGLSWPVTKYLISQWPPLPLRGLTGIAGSLALFGYAALRGDSLAVPRDQRLRLVISAFFNVTLWMAVMGLALLWLPAGETAVIAYTMPVWTALLAWPLLGERLTLRRVAALALAFGGIAALMGAAGFAASMTKLPGILLALTGALGFALGTIFLKRFPIALPGATSAAWQIGLGCIPVAVIGLAFEIPHVSVLTPLGWAGLVYLVVIQFCIAYVCWFAALQRLPASVAAIGTMATPVIGVVASAVALHEPLGVGQIAALVMTLTGVALATRS”, for which the protein production result is listed as “failed”.

For the sequence “MSDSTLTGNAPVRRNITRKNVIIGLLLLLFVLIALWCHGRPGSELGLLEFTPLVALAILSLIGVDIVLAVISSIIIAMIMTSTGLPEMGTMLAKSTGSFIATVGLIIMLGAGVGEVATRTGAAVELVKFVVHRIGLSSQTRVKFGIVASSILICGSLGTMAGGNAIIVAVIIPVAAAVRLTPPTVAALMMTAGSVGLFTGPFTPSTVTILSLGGLSYPDYLLYVGLPMSAVTLLAGWVMAGRIQKMTEGKLRYDVDLAEKPQEDLSAAQQRRRKLSALAFAATIIVMAIVGVVIKAGFSFAIIVMLLVALMTGLVGGLRPTQILQALYHGCGRLVWMFILYWLYNPILELMDGLHAYQGLLEYTQPLLEGISPAWLCFSIFAFNIIGHVPGAAVAQMTFTHKIFGPMLMAAGVPPQGTTAVLLASSQVDWFGPFPSSDMFGQMGLAQSTHLKYMLYNGWAIVVANIILFALLFQILV”, the protein production entry is given as “failed”.

In the case of “MSDTLYIKMDQAVEITKKQVTVGDVAKLQCKNKNITNRLKSMKLLEDTTKGKKRYIVSIMKIIEMADQTFQNVDIQNIGETECVVEFKTPKKDDGPM”, the protein production entry was “not failed”.

“MSDVYNNEAFFKQYMKRRYRENSPNELIEKPAFFQLIGDVKGKKILDLGCGDAIFGKELLEKDCHSYTGIEGSELMYEKAKKQLENKNGIVHFLNLKDYTYPPATFDLVTSRLALHYIEHLPIIFQNVYETLKTNGTFTFSVQHPVITSSFESLQTSGKRTSWLVDDYFKTGKRVEPWIDQKVIKYHRTTEEYFTLLQQAGFTITNLKEATPNQTYFQSAEEYERRLRIPLFLLFSCRKLEHHHHHH”: the protein production result is “failed”.

On to “MSDWNIDQAEELYGVNRWGAGYFSIGENGNIQIRPNHRLPDVTIDMKEVVDEIISEGIQFPAVIRFHDILRSQVEIINETFGKQIEEANYQGQYCGVFPIKVNQMREVVEEIMDAGEPYNYGLEAGSKPELMAVMAYNDNPEALTILNGYKDKDYLTLALLGRQLKRKMIIVIEKFSELEMLIPLAKQMGVKPMIGLRSKMMVKSSGKWAGSSGDRAKFGLSIAEILNVIERLREEDMLHCAKLLHFHIGSQLSDIRKIKEAVNEGARLYAKLVLEGMPLEYLDIGGGLGIDYDGTSTTNDSSRNYSTEEYVADVVWGVKQICDLEKVPHPNLVSESGRAMTAHHSCVVTNIVGEMKPAGTQYDISASSDEHILVKNMRELHSSGDQFHPQERYNDAAGYKQNAYEAFKLGILSLNEMAKLDTMYWQILADIHHSLDKDTYVMQELEELEDMLASQYLCNFSVFQSAADTWAIGQVLPVVPISRLNEQPEVRCSIVDITCDSDGKLSKYIEGTDISDHIPMHNLRKGEDYHVGLFLTGAYQDVMGDMHNLFGRLTEVHVYCHDDEPGDFYIEEVVPGTSAEKVLQTMQYNTEYMAKTVKKQIDRQVRKGSLAPREGVRWTNFYEHCLAGSTYLRVE”, for which the protein production entry is listed as “failed”.

“MSEANSGPGRVTREQRGHLFLIGLDRAGKRNAFDSAMLADLALAMGEYERSEESRCAVLFAHGEHFTAGLDLMELAPKLAASGFRYPDGGVDPWGVVQPRRSKPLVVAVQGTCWTAGIELMLNADIAVAARGTRFAHLEVLRGIPPLGGSTVRFPRAAGWTDAMRYILTGDEFDADEALRMRLLTEVVEPGEELARALEYAERIARAAPLAVRAALQSAFQGRDEGDDAALSRVNESLAALIGSEDVREGVLAMV”: the protein production result was “not failed”.

Take “MSEDAWKVNLIGNDEVHDLYTIVGNAAKQSMARDTDPMVSTILAYEGDWRKVFKRNTMTTFYGSKGFGMAQQHMDDLMEPLSREVMQKKRAKHPFGQTRKEHHAASRLLAAHAAAAIKGEIPLAIKAMEFIQKLSAMMAHEGKPLEWTTPIGLPWSNRYHDPVTERVNLWMHDHGVRRPFRPVVADGYKKTINKNHSVNGSAPNFVHALEHHHHHH”: the protein production result is recorded as “failed”.

For the sequence “MSEDSELIEQVIEQPDSLIISPPSDSSSSSYNHIQPFVYLESTATTQTNHNVLLILNQKITIDLISLWKKCEIIVCADGGANSLYEYFNDNNHHHHHENLQRSDYIPDYIVGDFDSISPDVKTYYESHGSKIIRQSSQYYNDFTKSIHCIQLHYQLNHTKENWFESIDEVDGLAKLWNGLNNSSDVVVDIDITIYVLNAIGGRFDQTVQSINQLYIMNEDYPKVTVFFITTNDIIFLLKKGVNYISYKNRLMFHKDNGSSPTPTCGLLPLSNKTPIILNSYGLKYDMRNWKTEMLGQVSSSNRISGETGFIVECSDDIVMNIEIDV”, the protein production entry is reported as “not failed”.

On to “MSEEFDESEIIFSDNYFPIRRREDGNEKENNRPVDFRENSERVWNKSSRRSKTTPLPSAVTAFSSSLPVNIPMRRYSTEEEYSDDDGGRKMIPPHLIVGRRMEGGQMAFSVCTGNGRTLKGRDLSRVRNSVLKLTGFLEA”, for which the protein production result is “failed”.

With “MSEEIREVKVLEKPWVEKYRPQRLDDIVGQEHIVKRLKHYVKTGSMPHLLFAGPPGVGKCLTGDTKVIANGQLFELGELVEKLSGGRFGPTPVKGLKVLGIDEDGKLREFEVQYVYKDRTDRLIKIKTQLGRELKVTPYHPLLVNRENGEIKWIKAEELKPGDKLAIPSFLPLITGENPLAEWLGYFMGSGYAYPSNSVITFTNEDPLIRQRFMELTEKLFPDAKIRERIHADGTPEVYVVSRKAWSLVNSISLTLIPREGWKGIRSFLRAYSDCNGRIESDAIVLSTDNNDMAQQIAYALASFGIIAKMDGEDVIISGSDNIERFLNEIGFSTQSKLKEAQKLIRKTNVRSDGLKINYELISYVKDRLRLNVNDKRNLSYRNAKELSWELMKEIYYRLEELERLKKVLSEPILIDWNEVAKKSDEVIEKAKIRAEKLLEYIKGERKPSFKEYIEIAKVLGINVERTIEAMKIFAKRYSSYAEIGRKLGTWNFNVKTILESDTVDNVEILEKIRKIELELIEEILSDGKLKEGIAYLIFLFQNELYWDEITEVKELRGDFIIYDLHVPGYHNFIAGNMPTVVHNTTAALALARELFGENWRHNFLELNASDERGINVIREKVKEFARTKPIGGASFKIIFLDEADALTQDAQQALRRTMEMFSSNVRFILSCNYSSKIIEPIQSRCAIFRFRPLRDEDIAKRLRYIAENEGLELTEEGLQAILYIAEGDMRRAINILQAAAALDKKITDENVFMVASRARPEDIREMMLLALKGNFLKAREKLREILLKQGLSGEDVLVQMHKEVFNLPIEEPKKVLLADKIGEYNFRLVEGANEIIQLEALLAQFTLIGKK”, the protein production result is recorded as “failed”.

For “MSEEKNLVINANDSLGEIVIAPEVIEVIIGIAASKVEGVYGMRGTFANNVNELLGRAAHGKGVYLRTEEEGLKVDIYCYLNYGVSVPKVALEMQDRVKQQVLFMTDIDLVEVNIHVVAVVPEKIPQPDLNELFPEDEDGEENELEHHHHHH”, the protein production entry is listed as “not failed”.

Turning to “MSEHHHDHSHDHGHAGHQYHAVGSIQIAFFMNFGFTILEAIGGVMTNSTAILANAVHDFGDSIAVGQAWYFEKLSGRTGDKRYSYGYQRFSIFGALVSALMMLASSFLVLVEAVPRLLHPEHPNAKGMVAFALVGVAVNALAMLRLKGQAGMNARVIALHLLEDVLGWLSVLLVSVVLLFTSLPILDPLLAIVITLYILTGVVKNLRAMVPVFLQAVPSELSLDKVVADIQQTEHVTGVHHAHLWSLDGQRTVFTAHLEIGCDVNPAEYASIKEEIRKLVARHGIYHSTVELEYPGEVCRNESHKDG”, the protein production entry is “failed”.

As to “MSEHPKKVVLLDLDGTLTKSDPGIIGCVVKAFEEMGYPVPDDAELHRFIGPAISESMQRNGIPDDKLDEGVRIYRKYYADEAVFDDPNNPGQKVPGRLNNTIYQGIPEQLAKLRADGYYLAIASCKPQYQCIPICEHFHLDTMVDGIYGASEDNSRLDKDQVIRWAFQHIDFDENAGDKALMVGDRWTDADGAKACGLDCLGCGWGYAEPGELKAHGAYRILDSVDELAQAVEEYFA”, the protein production result was “not failed”.

In the case of “MSEILVLNCGSSSVKFALINPHTSQSLVTGLAENIATKNCKVVFKAEHKIVKYLENGSYKDVFEMLKDFLVENKHLEKIVAIGHRVVHGGQYFSKSVLINADSLEKIKACIALAPLHNPAHIEGIRFCQQIFPELPQVAVFDTAFHQTMPSYIAEYAIPYELTHKHNIRKYGAHGTSHKYVSEQAAKILTQQKANVIVAHLGNGCSITAVVDGKSIDTSMGLTPLDGLVMGTRSGCIDPSIFAYISDNLGWSVTEITNMLNKQSGLLGICGHNDMREVSQLAAKGDSLAKLAIEIFSHRVAKFVASYMIYFNKLDALVFTGGIGENAANIRKNIISKLANLGFMIDHQKNSNSETFINSKNSHNIMVIATNEELMIAQETQNLI”, the protein production entry is listed as “not failed”.

For “MSEKFDCHYCRDPLQGKKYVQKDGRHCCLKCFDKFCANTCVDCRKPISADAKEVHYKNRYWHDNCFRCAKCLHPLASETFVSKDGKILCNKCATREDSPRCKGCFKAIVAGDQNVEYKGTVWHKDCFTCSNCKQVIGTGSFFPKGEDFYCVTCHETKFAKHCVKCNKAITSGGITYQDQPWHAECFVCVTCSKKLAGQRFTAVEDQYYCVDCYKNFVAKKCAGCKNPITGKRTVSRVSHPVSKARKSPVCHGKRLPLTLFPSANLRGRHPGGERTCPSWVVVLYRKNRSLAAPRGPGLVKAPVWWPMKDNPGTTTASTAKNAP”, the protein production entry is recorded as “failed”.

Regarding “MSEKLQKVLARAGHGSRREIESIIEAGRVSVDGKIAKLGDRVEVTPGLKIRIDGHLISVRESAEQICRVLAYYKPEGELCTRNDPEGRPTVFDRLPKLRGARWIAVGRLDVNTCGLLLFTTDGELANRLMHPSREVEREYAVRVFGQVDDAKLRDLSRGVQLEDGPAAFKTIKFSGGEGINQWYNVTLTEGRNREVRRLWEAVGVQVSRLIRVRYGDIPLPKGLPRGGWTELDLAQTNYLRELVELPPETSSKVAVEKDRRRMKANQIRRAVKRHSQVSGGRRSGGRNNNG”, the protein production entry is listed as “not failed”.
